Assay results as given in patent US11512128B2, “VEGF/DLL4 binding agents and uses thereof” (MEREO BIOPHARMA 5, INC., priority 2011, dated 2022).
Substitutions are numbered along the chain they refer to.

B1: 219R45-MB-21R79: anti-VEGF/anti-DLL4 monovalent/bispecific antibody, heavy chains SEQ ID NO:7 and 6, light chains SEQ ID NO:8 (antibody)
heavy 1: QVQLVQSGAEVKKPGASVKVSCKASGYTFTNYWMHWVRQAPGQGLEWMGDINPSNGRTSYKEKFKRRVTLSVDKSSSTAYMELSSLRSEDTAVYFCTIHYDDKYYPLMDYWGQGTLVTVSSASTKGPSVFPLAPCSRSTSESTAALGCLVKDYFPEPVTVSWNSGALTSGVHTFPAVLQSSGLYSLSSVVTVPSSNFGTQTYTCNVDHKPSNTKVDKTVERKCCVECPPCPAPPVAGPSVFLFPPKPKDTLMISRTPEVTCVVVDVSHEDPEVQFNWYVDGVEVHNAKTKPREEQFNSTFRVVSVLTVVHQDWLNGKEYKCKVSNKGLPAPIEKTISKTKGQPREPQVYTLPPSREKMTKNQVSLTCLVKGFYPSDIAVEWESNGQPENNYKTTPPMLKSDGSFFLYSKLTVDKSRWQQGNVFSCSVMHEALHNHYTQKSLSLSPGK
heavy 2: QVQLVQSGAEVKKPGASVKISCKASGYSFTAYYIHWVKQAPGQGLEWIGYIANYNRATNYNQKFKGRVTFTTDTSTSTAYMELRSLRSDDTAVYYCARDYDYDVGMDYWGQGTLVTVSSASTKGPSVFPLAPCSRSTSESTAALGCLVKDYFPEPVTVSWNSGALTSGVHTFPAVLQSSGLYSLSSVVTVPSSNFGTQTYTCNVDHKPSNTKVDKTVERKCCVECPPCPAPPVAGPSVFLFPPKPKDTLMISRTPEVTCVVVDVSHEDPEVQFNWYVDGVEVHNAKTKPREEQFNSTFRVVSVLTVVHQDWLNGKEYKCKVSNKGLPAPIEKTISKTKGQPREPQVYTLPPSREEMTKNQVSLTCLVEGFYPSDIAVEWESNGQPENNYKTTPPMLDSDGSFFLYSELTVDKSRWQQGNVFSCSVMHEALHNHYTQKSLSLSPGK
light: DIVMTQSPDSLAVSLGERATISCRASESVDNYGISFMKWFQQKPGQPPKLLIYAASNQGSGVPDRFSGSGSGTDFTLTISSLQAEDVAVYYCQQSKEVPWTFGGGTKVEIKRTVAAPSVIFPPSDEQLKSGTASVVCLLNNFYPREAKVQWKVDNALQSGNSQESVTEQDSKDSTYSLSSTLTLSKADYEKHKVYACEVTHQGLSSPVTKSFNRGEC
modifications: 21R79 Heavy chain without predicted signal sequence; Light chain without predicted signal sequence
B2: 219R45-MB-21M18: anti-VEGF/anti-DLL4 monovalent/bispecific antibody, heavy chains SEQ ID NO:7 and 5, light chains SEQ ID NO:8 (antibody)
heavy 1: B1 heavy 1
heavy 2: B1 heavy 2 with A52S, N53S, R56G
light: B1 light
modifications: 21R79 Heavy chain without predicted signal sequence; 21M18 Heavy chain without predicted signal sequence; Light chain without predicted signal sequence
B3: 21M18: anti-DLL4 antibody, parental antibody (Hoey et al., 2009; U.S. Pat. No. 7,750,124) (antibody, V domains shown)
VH: QVQLVQSGAEVKKPGASVKISCKASGYSFTAYYIHWVKQAPGQGLEWIGYISSYNGATNYNQKFKGRVTFTTDTSTSTAYMELRSLRSDDTAVYYCARDYDYDVGMDYWGQGTLVTVSS
VL: DIVMTQSPDSLAVSLGERATISCRASESVDNYGISFMKWFQQKPGQPPKLLIYAASNQGSGVPDRFSGSGSGTDFTLTISSLQAEDVAVYYCQQSKEVPWTFGGGTKVEIK

Experiments:
[1] = test system: VEGF-induced proliferation of HUVEC cells; experiment: HUVEC proliferation assay; type: cell-based, human; settings: hVEGF 5 ng/ml, Alamar Blue on day 7
Experimental: FIG. 3. Inhibition of VEGF-induced HUVEC proliferation by anti-VEGF/anti-DLL4 bispecific antibodies. Fluorescence intensity is read using an excitation wavelength of 530 nm and an emission wavelength of 590. 219R45-MB-21M18 (-●-); 219R45-MB-21R79 (-▴-); 219R45 (-▪-); Medium with no VEGF (-⋄-).
HUVEC cells were obtained from Lonza (Walkersville, Md.) and cultured in growth media (M199, 10% heat-inactivated FBS (HI-FBS), 50 μg/ml EGS, 1X heparin, 1 mM L-glutamine). For the HUVEC proliferation assay, a 96-well plate was pre-coated with 50 μl of 10 μg/ml rat tail collagen type I solution (collagen I in 0.02N acetic acid) and incubated at 4° C. overnight. After incubation, the plate was thoroughly aspirated to remove unbound collagen I solution and washed once with 200 μl DPBS. The HUVEC cells were removed from the surface of the growth flasks using an endothelial cell subclone reagent and centrifuged at 1200 rpm for 5 minutes at 4° C. The cells were resuspended in starvation/assay medium (M199 and 2% HI-FBS, 1× heparin, 5 U/ml heparin-glutamine) at a density of 10^5 cells/ml. The cells were seeded into the collagen-coated assay plate at 5000 cells/well, 50 ul/well. The cells were incubated for 3 hours at 37° C., washed one time, refed with 100 ul assay media, and incubated overnight at 37° C. The next day, bispecific antibodies 219R45-MB-21M18, 219R45-MB-21R79, parental antibody 219R45, or control antibody LZ1 were prepared in a mixture with human VEGF (R&D Biosystems, Minneapolis, Minn.). The antibodies were serially diluted 5-fold from […] to 0.25 nM in assay buffer in combination with hVEGF (final concentration 5 ng/ml). The mixture was pre-incubated at 37° C. for 2 hours. The medium was removed from the assay plate, and 100 μl of the antibody/hVEGF mixture was added to each well. […] The plate was read with a SpectraMax M5e Microplate reader (Molecular Devices, Sunnyvale CA) using a excitation wavelength of […] and an emission wavelength of 590 nm.

[2] = test system: OMP-C8 colon tumor; experiment: OMP-C8 colon tumor growth in vivo; set-up: species or system NOD/SCID mice
Experimental: FIGS. 11A and 11B. Inhibition of colon tumor growth in vivo by anti-VEGF/anti-DLL4 bispecific antibodies. OMP-C8 colon tumor cells were injected subcutaneously into NOD/SCID mice. Mice were treated with control antibody (-▪-), anti-VEGF antibody bevacizumab (-▴-), or anti-VEGF/anti-DLL4 bispecific antibodies 219R45-MB-21M18 (-⋄-), 219R45-MB-21R75 (-●-), 219R45-MB-21R79 (-∘-), or 219R45-MB-21R83 (-▾-). Mice were treated with antibodies as single agents (FIG. 11A) or in combination with irinotecan (FIG. 11B). Antibodies were administered intraperitoneally at a dose of 15 mg/kg once a week and irinotecan at a dose of 7.5 mg/kg one a week. Data are shown as tumor volume (mm^3) over days post-treatment.
Single cell suspensions of OMP-C8 colon tumor xenografts (50,000 cells) were injected subcutaneously into the flanks of 6-8 week old NOD/SCID mice. Tumors were allowed to grow for 21 days until they reached an average volume of 80 mm^3. The mice were randomized (n=8 per group) and treated with anti-DLL4 antibody 21M18, anti-VEGF antibody bevacizumab, anti-VEGF/anti-DLL4 bispecific antibodies 219R45-MB-21M18, 219R45-MB-21R75, 219R45-MB-21R79, 219R45-MB-21R83, or control antibody, either alone or in combination with irinotecan. Antibodies and irinotecan were dosed weekly by injection into the intraperitoneal cavity. Bevacizumab and bispecific antibodies 219R45-MB-21M18, 219R45-MB-21R75, 219R45-MB-21R79, and 219R45-MB-21R83 were dosed at 15 mg/kg, and irinotecan was dosed at 7.5 mg/kg. Tumor growth was monitored and tumor volumes were measured with electronic calipers at the indicated time points. Data are expressed as mean±S.E.M.
Following the treatment phase, tumor sections were prepared and analyzed by hematoxylin and eosin (H&E) staining. […] This is characteristic of highly necrotic tumor tissue.

[3] = target: T1, human VEGF165 (Homo sapiens, UniProt P15692); experiment: Biacore binding affinity (KD) to human VEGF; settings: Biacore 2000, biotinylated human VEGF165 on streptavidin chip; read-out: KD hVEGF
T1 sequence (P15692 27-191 isoform P15692-4): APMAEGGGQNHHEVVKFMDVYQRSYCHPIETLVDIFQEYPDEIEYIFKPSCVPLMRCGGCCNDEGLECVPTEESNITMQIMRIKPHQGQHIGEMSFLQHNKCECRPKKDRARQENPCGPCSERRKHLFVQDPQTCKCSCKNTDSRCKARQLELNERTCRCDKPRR
Experimental: The KDs of parental antibodies anti-VEGF 219R45 (IgG format), anti-DLL4 21R79 (IgG format), anti-DLL4 21M18 (IgG format) and bispecific antibodies 219R45-MB-21M18 and 219R45-MB-21R79 were determined using a Biacore 2000 system from Biacore LifeSciences (GE Healthcare). Recombinant human DLL4-Fc or mouse DLL4-Fc proteins were immobilized on CM5 carboxyl chips using standard amine-based chemistry (NHS/EDC) and blocked with ethanolamine. Recombinant human VEGF165 or mouse VEGF165 were biotinylated and immobilized on streptavidin chips. The antibodies were serially diluted 2-fold from 100 nM to 0.78 nM in HBS-P (0.01M HEPES pH7.4, 0.15M NaCl, 0.005% v/v Polysorbate 20). For each antibody, all 8 dilutions were sequentially injected over a specific chip. Kinetic data were collected over time and were fit using the simultaneous global fit equation to yield affinity constants (KD values) for each bispecific antibody.

| Molecule | inhibition of VEGF-induced HUVEC proliferation [1] | inhibition of tumor growth in combination with irinotecan ([2]; antibody 15 mg/kg, irinotecan 7.5 mg/kg weekly ip) | H&E staining of tumor sections after treatment ([2]; in combination with irinotecan) | Kd [3] [nM] |
| --- | --- | --- | --- | --- |
| B1 | inhibited HUVEC proliferation |  |  |  |
| B2 | inhibited HUVEC proliferation | greatest inhibition of tumor growth | dark pink staining regions providing evidence of extensive calcification |  |
| B3 |  |  |  | > 100 |
